{
  "source": "patent US20220177596A1",
  "about": "(Bristol-Myers Squibb, published 2022)",
  "data": [
    {"target": "T1, human-CD40 monomer (human, UniProt P25942 21-193, limits assumed)", "T1 construct": "also called hCD40-monomer; human-CD40-monomer protein", "T1 sequence (P25942 21-193 limits assumed)": "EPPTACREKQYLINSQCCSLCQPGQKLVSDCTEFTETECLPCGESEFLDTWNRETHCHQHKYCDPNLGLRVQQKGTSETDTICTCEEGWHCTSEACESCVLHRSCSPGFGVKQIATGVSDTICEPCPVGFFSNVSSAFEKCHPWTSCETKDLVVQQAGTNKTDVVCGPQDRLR", "assay": "SPR 2 pt screen, Ab on protein A", "procedure": "The VH sequences were formatted in the context of an IgG1.3f isotype. The Vκ sequences were formatted as a full light chain with a common CL sequence. All 55 combinations of these humanized HC and LC constructs, as well as the chimeric Y1238 molecule were expressed as 3 ml supernatants for binding analysis by SPR. Each of the 56 supernatants, as well as a purified Y1238-chimeric IgG1 antibody, was captured on a protein A sensor chip and tested for binding to two concentrations (i.e., 200 nM and 1000 nM) of hCD40-monomer using BIAcore™ SPR in a screening assay. All antibodies, except for those containing hz-HC3, captured at high levels (>300 RU) using a 100-fold dilution of the expression supernatant, indicating a high antibody titer in the supernatant except for the hz-HC3 samples. The kinetic data for the two concentrations of hCD40-monomer were fit to a 1:1 Langmuir model, to yield estimates of the kinetic and affinity values for these interactions, and for comparison of the different molecules. […] Also, for a given heavy chain, the antibodies with light chains hz-LC1 or hz-LC2 had higher CD40 affinity than those with hz-LC3, hz-LC4 or hz-LC5.", "units": {"Kd": "nM", "koff": "s⁻¹", "kon": "M⁻¹ s⁻¹"}, "values": [
      {"binder": "humanized Y1238 hz25 (hz-HC5 / hz-LC5), IgG1.3f (antibody, V domains shown, IgG1.3f heavy constant, common CL; expression supernatant; also called Sup 25) VH: QVQLVQSGAEVKKPGASVKVSCKASGYAFTNYLIEWVRQRPGQGLEWMGVINPGSGGTNYNEKFKGRVTMTADKSISTAYMELSRLRSDDTAVYYCARSQLGRRFDYWGQGTLVTVSS VL: DIQMTQSPSSLSASVGDRVTITCKASQDVRTGVAWYQQKPGQAPKLLIYSASYRNTGVPSRFSGSRSGTDFTFTISSLQPEDIAVYYCQQHYSPPYTFGGGTKVEIK", "Kd": 6.6, "koff": 0.00028, "kon": 43000},
      {"binder": "humanized Y1238 hz10 (hz-HC2 / hz-LC5), IgG1.3f (antibody, V domains shown, IgG1.3f heavy constant, common CL; expression supernatant; also called Sup 10) VH: QVQLVQSGAEVKKPGASVKVSCKASGYAFTNYLIEWVRQAPGQGLEWMGVINPGSGGTNYNEKFKGRVTMTADTSISTAYMELSRLRSDDTAVYYCARSQLGRRFDYWGQGTLVTVSS VL: DIQMTQSPSSLSASVGDRVTITCKASQDVRTGVAWYQQKPGQAPKLLIYSASYRNTGVPSRFSGSRSGTDFTFTISSLQPEDIAVYYCQQHYSPPYTFGGGTKVEIK", "Kd": 5.9, "koff": 0.00027, "kon": 45000},
      {"binder": "humanized Y1238 hz21 (hz-HC5 / hz-LC1), IgG1.3f (antibody, V domains shown, IgG1.3f heavy constant, common CL; expression supernatant; also called Sup 21) VH: QVQLVQSGAEVKKPGASVKVSCKASGYAFTNYLIEWVRQRPGQGLEWMGVINPGSGGTNYNEKFKGRVTMTADKSISTAYMELSRLRSDDTAVYYCARSQLGRRFDYWGQGTLVTVSS VL: DIQMTQSPSSLSASVGDRVTITCKASQDVRTGVAWYQQKPGKAPKLLIYSASYRNTGVPSRFSGSGSGTDFTFTISSLQPEDIATYYCQQHYSPPYTFGGGTKVEIK", "Kd": 3.5, "koff": 0.00015, "kon": 42000},
      {"binder": "humanized Y1238 hz2 (hz-HC1 / hz-LC2), IgG1.3f (antibody, V domains shown, IgG1.3f heavy constant, common CL; expression supernatant; also called Sup 2) VH: QVQLVQSGAEVKKPGASVKVSCKASGYAFTNYLIEWVRQAPGQGLEWMGVINPGSGGTNYNEKFKGRVTMTRDTSISTAYMELSRLRSDDTAVYYCARSQLGRRFDYWGQGTLVTVSS VL: DIQMTQSPSSLSASVGDRVTITCKASQDVRTGVAWYQQKPGKAPKLLIYSASYRNTGVPSRFSGSRSGTDFTFTISSLQPEDIATYYCQQHYSPPYTFGGGTKVEIK", "Kd": 5.2, "koff": 0.00023, "kon": 45000},
      {"binder": "humanized Y1238 hz5 (hz-HC1 / hz-LC5), IgG1.3f (antibody, V domains shown, IgG1.3f heavy constant, common CL; expression supernatant; also called Sup 5) VH: QVQLVQSGAEVKKPGASVKVSCKASGYAFTNYLIEWVRQAPGQGLEWMGVINPGSGGTNYNEKFKGRVTMTRDTSISTAYMELSRLRSDDTAVYYCARSQLGRRFDYWGQGTLVTVSS VL: DIQMTQSPSSLSASVGDRVTITCKASQDVRTGVAWYQQKPGQAPKLLIYSASYRNTGVPSRFSGSRSGTDFTFTISSLQPEDIAVYYCQQHYSPPYTFGGGTKVEIK", "Kd": 11, "koff": 0.0005, "kon": 47000},
      {"binder": "humanized Y1238 hz17 (hz-HC4 / hz-LC2), IgG1.3f (antibody, V domains shown, IgG1.3f heavy constant, common CL; expression supernatant; also called Sup 17) VH: QVQLVQSGAEVKKPGASVKVSCKASGYAFTNYLIEWVRQAPGQGLEWMGVINPGSGGTNYNEKFKGRVTMTADKSISTAYMELSRLRSDDTAVYYCARSQLGRRFDYWGQGTLVTVSS VL: DIQMTQSPSSLSASVGDRVTITCKASQDVRTGVAWYQQKPGKAPKLLIYSASYRNTGVPSRFSGSRSGTDFTFTISSLQPEDIATYYCQQHYSPPYTFGGGTKVEIK", "Kd": 4.4, "koff": 0.00018, "kon": 42000},
      {"binder": "humanized Y1238 hz8 (hz-HC2 / hz-LC3), IgG1.3f (antibody, V domains shown, IgG1.3f heavy constant, common CL; expression supernatant; also called Sup 8) VH: QVQLVQSGAEVKKPGASVKVSCKASGYAFTNYLIEWVRQAPGQGLEWMGVINPGSGGTNYNEKFKGRVTMTADTSISTAYMELSRLRSDDTAVYYCARSQLGRRFDYWGQGTLVTVSS VL: DIQMTQSPSSLSASVGDRVTITCKASQDVRTGVAWYQQKPGQSPKLLIYSASYRNTGVPSRFSGSRSGTDFTFTISSLQPEDIAVYYCQQHYSPPYTFGGGTKVEIK", "Kd": 6.2, "koff": 0.00029, "kon": 46000},
      {"binder": "humanized Y1238 hz18 (hz-HC4 / hz-LC3), IgG1.3f (antibody, V domains shown, IgG1.3f heavy constant, common CL; expression supernatant; also called Sup 18) VH: QVQLVQSGAEVKKPGASVKVSCKASGYAFTNYLIEWVRQAPGQGLEWMGVINPGSGGTNYNEKFKGRVTMTADKSISTAYMELSRLRSDDTAVYYCARSQLGRRFDYWGQGTLVTVSS VL: DIQMTQSPSSLSASVGDRVTITCKASQDVRTGVAWYQQKPGQSPKLLIYSASYRNTGVPSRFSGSRSGTDFTFTISSLQPEDIAVYYCQQHYSPPYTFGGGTKVEIK", "Kd": 7.6, "koff": 0.00035, "kon": 46000},
      {"binder": "humanized Y1238 hz6 (hz-HC2 / hz-LC1), IgG1.3f (antibody, V domains shown, IgG1.3f heavy constant, common CL; expression supernatant; also called Sup 6) VH: QVQLVQSGAEVKKPGASVKVSCKASGYAFTNYLIEWVRQAPGQGLEWMGVINPGSGGTNYNEKFKGRVTMTADTSISTAYMELSRLRSDDTAVYYCARSQLGRRFDYWGQGTLVTVSS VL: DIQMTQSPSSLSASVGDRVTITCKASQDVRTGVAWYQQKPGKAPKLLIYSASYRNTGVPSRFSGSGSGTDFTFTISSLQPEDIATYYCQQHYSPPYTFGGGTKVEIK", "Kd": 2.7, "koff": 0.00012, "kon": 45000},
      {"binder": "humanized Y1238 hz3 (hz-HC1 / hz-LC3), IgG1.3f (antibody, V domains shown, IgG1.3f heavy constant, common CL; expression supernatant; also called Sup 3) VH: QVQLVQSGAEVKKPGASVKVSCKASGYAFTNYLIEWVRQAPGQGLEWMGVINPGSGGTNYNEKFKGRVTMTRDTSISTAYMELSRLRSDDTAVYYCARSQLGRRFDYWGQGTLVTVSS VL: DIQMTQSPSSLSASVGDRVTITCKASQDVRTGVAWYQQKPGQSPKLLIYSASYRNTGVPSRFSGSRSGTDFTFTISSLQPEDIAVYYCQQHYSPPYTFGGGTKVEIK", "Kd": 10, "koff": 0.00048, "kon": 48000},
      {"binder": "humanized Y1238 hz22 (hz-HC5 / hz-LC2), IgG1.3f (antibody, V domains shown, IgG1.3f heavy constant, common CL; expression supernatant; also called Sup 22) VH: QVQLVQSGAEVKKPGASVKVSCKASGYAFTNYLIEWVRQRPGQGLEWMGVINPGSGGTNYNEKFKGRVTMTADKSISTAYMELSRLRSDDTAVYYCARSQLGRRFDYWGQGTLVTVSS VL: DIQMTQSPSSLSASVGDRVTITCKASQDVRTGVAWYQQKPGKAPKLLIYSASYRNTGVPSRFSGSRSGTDFTFTISSLQPEDIATYYCQQHYSPPYTFGGGTKVEIK", "Kd": 2.9, "koff": 0.00012, "kon": 40000},
      {"binder": "humanized Y1238 hz7 (hz-HC2 / hz-LC2), IgG1.3f (antibody, V domains shown, IgG1.3f heavy constant, common CL; expression supernatant; also called Sup 7) VH: QVQLVQSGAEVKKPGASVKVSCKASGYAFTNYLIEWVRQAPGQGLEWMGVINPGSGGTNYNEKFKGRVTMTADTSISTAYMELSRLRSDDTAVYYCARSQLGRRFDYWGQGTLVTVSS VL: DIQMTQSPSSLSASVGDRVTITCKASQDVRTGVAWYQQKPGKAPKLLIYSASYRNTGVPSRFSGSRSGTDFTFTISSLQPEDIATYYCQQHYSPPYTFGGGTKVEIK", "Kd": 2.7, "koff": 0.00011, "kon": 43000},
      {"binder": "humanized Y1238 hz23 (hz-HC5 / hz-LC3), IgG1.3f (antibody, V domains shown, IgG1.3f heavy constant, common CL; expression supernatant; also called Sup 23) VH: QVQLVQSGAEVKKPGASVKVSCKASGYAFTNYLIEWVRQRPGQGLEWMGVINPGSGGTNYNEKFKGRVTMTADKSISTAYMELSRLRSDDTAVYYCARSQLGRRFDYWGQGTLVTVSS VL: DIQMTQSPSSLSASVGDRVTITCKASQDVRTGVAWYQQKPGQSPKLLIYSASYRNTGVPSRFSGSRSGTDFTFTISSLQPEDIAVYYCQQHYSPPYTFGGGTKVEIK", "Kd": 7.2, "koff": 0.00031, "kon": 43000},
      {"binder": "humanized Y1238 hz9 (hz-HC2 / hz-LC4), IgG1.3f (antibody, V domains shown, IgG1.3f heavy constant, common CL; expression supernatant; also called Sup 9) VH: QVQLVQSGAEVKKPGASVKVSCKASGYAFTNYLIEWVRQAPGQGLEWMGVINPGSGGTNYNEKFKGRVTMTADTSISTAYMELSRLRSDDTAVYYCARSQLGRRFDYWGQGTLVTVSS VL: DIQMTQSPSSLSASVGDRVTITCKASQDVRTGVAWYQQKPGQSPKLLIYSASYRNTGVPSRFSGSRSGTDFTFTISSLQAEDIAVYYCQQHYSPPYTFGGGTKVEIK", "Kd": 6.6, "koff": 0.00031, "kon": 47000},
      {"binder": "humanized Y1238 hz16 (hz-HC4 / hz-LC1), IgG1.3f (antibody, V domains shown, IgG1.3f heavy constant, common CL; expression supernatant; also called Sup 16) VH: QVQLVQSGAEVKKPGASVKVSCKASGYAFTNYLIEWVRQAPGQGLEWMGVINPGSGGTNYNEKFKGRVTMTADKSISTAYMELSRLRSDDTAVYYCARSQLGRRFDYWGQGTLVTVSS VL: DIQMTQSPSSLSASVGDRVTITCKASQDVRTGVAWYQQKPGKAPKLLIYSASYRNTGVPSRFSGSGSGTDFTFTISSLQPEDIATYYCQQHYSPPYTFGGGTKVEIK", "Kd": 2.7, "koff": 0.00012, "kon": 45000},
      {"binder": "humanized Y1238 hz4 (hz-HC1 / hz-LC4), IgG1.3f (antibody, V domains shown, IgG1.3f heavy constant, common CL; expression supernatant; also called Sup 4) VH: QVQLVQSGAEVKKPGASVKVSCKASGYAFTNYLIEWVRQAPGQGLEWMGVINPGSGGTNYNEKFKGRVTMTRDTSISTAYMELSRLRSDDTAVYYCARSQLGRRFDYWGQGTLVTVSS VL: DIQMTQSPSSLSASVGDRVTITCKASQDVRTGVAWYQQKPGQSPKLLIYSASYRNTGVPSRFSGSRSGTDFTFTISSLQAEDIAVYYCQQHYSPPYTFGGGTKVEIK", "Kd": 8.9, "koff": 0.00042, "kon": 48000},
      {"binder": "humanized Y1238 hz20 (hz-HC4 / hz-LC5), IgG1.3f (antibody, V domains shown, IgG1.3f heavy constant, common CL; expression supernatant; also called Sup 20) VH: QVQLVQSGAEVKKPGASVKVSCKASGYAFTNYLIEWVRQAPGQGLEWMGVINPGSGGTNYNEKFKGRVTMTADKSISTAYMELSRLRSDDTAVYYCARSQLGRRFDYWGQGTLVTVSS VL: DIQMTQSPSSLSASVGDRVTITCKASQDVRTGVAWYQQKPGQAPKLLIYSASYRNTGVPSRFSGSRSGTDFTFTISSLQPEDIAVYYCQQHYSPPYTFGGGTKVEIK", "Kd": 8.3, "koff": 0.00037, "kon": 45000},
      {"binder": "humanized Y1238 hz19 (hz-HC4 / hz-LC4), IgG1.3f (antibody, V domains shown, IgG1.3f heavy constant, common CL; expression supernatant; also called Sup 19) VH: QVQLVQSGAEVKKPGASVKVSCKASGYAFTNYLIEWVRQAPGQGLEWMGVINPGSGGTNYNEKFKGRVTMTADKSISTAYMELSRLRSDDTAVYYCARSQLGRRFDYWGQGTLVTVSS VL: DIQMTQSPSSLSASVGDRVTITCKASQDVRTGVAWYQQKPGQSPKLLIYSASYRNTGVPSRFSGSRSGTDFTFTISSLQAEDIAVYYCQQHYSPPYTFGGGTKVEIK", "Kd": 6.3, "koff": 0.00028, "kon": 45000}
    ]}
  ]
}
